Measured values taken from paper PMC8882475.

Tests used:
Experiment in all cases: BLI
[1] = biological target: biotinylated SARS-CoV-2 S protein RBD, Beta variant (K417N, E484K, N501Y) (SARS-CoV-2) (UniProt P0DTC2)
[2] = biological target: SI–F019, huACE2 (18–615) - IgG1 Fc null (human) (UniProt Q9BYF1)
Bamlanivimab = biological target: Bamlanivimab
[3] = biological target: SARS-CoV-2 RBD (original, WT) (SARS-CoV-2) (UniProt P0DTC2)
[4] = biological target: SARS-CoV-2 RBD, Alpha (N501Y) (SARS-CoV-2) (UniProt P0DTC2)
[5] = biological target: SARS-CoV-2 RBD, Beta (K417N, E484K, N501Y) (SARS-CoV-2) (UniProt P0DTC2)
[6] = biological target: SARS-CoV-2 RBD, Delta (L452R, T478K) (SARS-CoV-2) (UniProt P0DTC2)
[7] = biological target: SARS-CoV-2 RBD, Gamma (K417T, E484K, N501Y) (SARS-CoV-2) (UniProt P0DTC2)
[8] = biological target: SARS-CoV-2 RBD, Kappa (L452R, E484Q) (SARS-CoV-2) (UniProt P0DTC2)
[9] = biological target: SARS-CoV-2 RBD, Lambda (L452Q, F490S) (SARS-CoV-2) (UniProt P0DTC2)
[10] = biological target: SARS-CoV-2 S1 protein (SARS-CoV-2)
[11] = biological target: SARS-CoV-2 spike trimer, full-length extracellular domain (ECD), His tagged (SARS-CoV-2) (UniProt P0DTC2)

## Imdevimab (antibody)
[1]
  Kd: < 0.001 nM

## SARS-CoV-2 RBD, Delta (L452R, T478K) (from UniProt P0DTC2) (domain or fragment)
[2]
  Kd: 7.26 nM

## SARS-CoV-2 RBD, Lambda (L452Q, F490S) (from UniProt P0DTC2) (domain or fragment)
[2]
  Kd: 13.5 nM

## SARS-CoV-2 S1 protein (domain or fragment)
[2]
  Kd: 14.7 nM
  koff: 0.00493 s⁻¹
  kon: 337000 M⁻¹ s⁻¹

## SARS-CoV-2 S protein RBD, Delta variant (L452R, T478K) (from UniProt P0DTC2) (domain or fragment)
Bamlanivimab
  Kd: 3.61 nM

## SI–F019, huACE2 (18–615) - IgG1 Fc null (from UniProt Q9BYF1-1 18-615) (Fc fusion)
[3]
  Kd: 0.114 nM
[4]
  Kd: 0.019 nM
[5]
  Kd: 0.0635 nM
[6]
  Kd: 0.0141 nM
[7]
  Kd: 0.0623 nM
[8]
  Kd: < 0.001 nM
[9]
  Kd: 0.0892 nM
[10]
  Kd: 0.29 nM
[11]
  Kd: 0.18 nM

## Tixagevimab (antibody)
[1]
  Kd: < 0.001 nM
